Values belong to the molecule of their own block, whether it stands above or below them.
Key:
[1] = tested on: GFP-14-3-3β; assay: GFP-14-3-3β co-IP with LC-MS/MS, untreated GFP-14-3-3β versus GFP control (14-3-3 interactome); assay type: binding, human; settings: untreated vs GFP; LFQ intensities; 3 replicates each
[2] = tested on: GFP-14-3-3β and its binding proteins; assay: GFP-14-3-3β co-IP with LC-MS/MS label-free quantification, untreated versus PP1c-treated; design: species or system human; settings: PP1 vs untreated; LFQ intensities; 3 replicates each

Difference (log2), PP1 vs untreated [2]: 0.5643 log2
B1: COPA (protein, UniProt P53621 1-1224, looked up)
Coatomer subunit alpha: MLTKFETKSARVKGLSFHPKRPWILTSLHNGVIQLWDYRMCTLIDKFDEHDGPVRGIDFHKQQPLFVSGGDDYKIKVWNYKLRRCLFTLLGHLDYIRTTFFHHEYPWILSASDDQTIRVWNWQSRTCVCVLTGHNHYVMCAQFHPTEDLVVSASLDQTVRVWDISGLRKKNLSPGAVESDVRGITGVDLFGTTDAVVKHVLEGHDRGVNWAAFHPTMPLIVSGADDRQVKIWRMNESKAWEVDTCRGHYNNVSCAVFHPRQELILSNSEDKSIRVWDMSKRTGVQTFRRDHDRFWVLAAHPNLNLFAAGHDGGMIVFKLERERPAYAVHGNMLHYVKDRFLRQLDFNSSKDVAVMQLRSGSKFPVFNMSYNPAENAVLLCTRASNLENSTYDLYTIPKDADSQNPDAPEGKRSSGLTAVWVARNRFAVLDRMHSLLIKNLKNEITKKVQVPNCDEIFYAGTGNLLLRDADSITLFDVQQKRTLASVKISKVKYVIWSADMSHVALLAKHAIVICNRKLDALCNIHENIRVKSGAWDESGVFIYTTSNHIKYAVTTGDHGIIRTLDLPIYVTRVKGNNVYCLDRECRPRVLTIDPTEFKFKLALINRKYDEVLHMVRNAKLVGQSIIAYLQKKGYPEVALHFVKDEKTRFSLALECGNIEIALEAAKALDDKNCWEKLGEVALLQGNHQIVEMCYQRTKNFDKLSFLYLITGNLEKLRKMMKIAEIRKDMSGHYQNALYLGDVSERVRILKNCGQKSLAYLTAATHGLDEEAESLKETFDPEKETIPDIDPNAKLLQPPAPIMPLDTNWPLLTVSKGFFEGTIASKGKGGALAADIDIDTVGTEGWGEDAELQLDEDGFVEATEGLGDDALGKGQEEGGGWDVEEDLELPPELDISPGAAGGAEDGFFVPPTKGTSPTQIWCNNSQLPVDHILAGSFETAMRLLHDQVGVIQFGPYKQLFLQTYARGRTTYQALPCLPSMYGYPNRNWKDAGLKNGVPAVGLKLNDLIQRLQLCYQLTTVGKFEEAVEKFRSILLSVPLLVVDNKQEIAEAQQLITICREYIVGLSVETERKKLPKETLEQQKRICEMAAYFTHSNLQPVHMILVLRTALNLFFKLKNFKTAATFARRLLELGPKPEVAQQTRKILSACEKNPTDAYQLNYDMHNPFDICAASYRPIYRGKPVEKCPLSGACYSPEFKGQICRVTTVTEIGKDVIGLRISPLQFR
Difference (log2), untreated vs GFP [1]: -0.09761 log2

Difference (log2), PP1 vs untreated [2]: 0.5791 log2
B2: OSBPL8 (protein, UniProt Q9BZF1 1-889, looked up)
Oxysterol-binding …: MEGGLADGEPDRTSLLGDSKDVLGPSTVVANSDESQLLTPGKMSQRQGKEAYPTPTKDLHQPSLSPASPHSQGFERGKEDISQNKDESSLSMSKSKSESKLYNGSEKDSSTSSKLTKKESLKVQKKNYREEKKRATKELLSTITDPSVIVMADWLKIRGTLKSWTKLWCVLKPGVLLIYKTQKNGQWVGTVLLNACEIIERPSKKDGFCFKLFHPLEQSIWAVKGPKGEAVGSITQPLPSSYLIIRATSESDGRCWMDALELALKCSSLLKRTMIREGKEHDLSVSSDSTHVTFYGLLRANNLHSGDNFQLNDSEIERQHFKDQDMYSDKSDKENDQEHDESDNEVMGKSEESDTDTSERQDDSYIEPEPVEPLKETTYTEQSHEELGEAGEASQTETVSEENKSLIWTLLKQVRPGMDLSKVVLPTFILEPRSFLDKLSDYYYHADFLSEAALEENPYFRLKKVVKWYLSGFYKKPKGLKKPYNPILGETFRCLWIHPRTNSKTFYIAEQVSHHPPISAFYVSNRKDGFCLSGSILAKSKFYGNSLSAILEGEARLTFLNRGEDYVMTMPYAHCKGILYGTMTLELGGTVNITCQKTGYSAILEFKLKPFLGSSDCVNQISGKLKLGKEVLATLEGHWDSEVFITDKKTDNSEVFWNPTPDIKQWRLIRHTVKFEEQGDFESEKLWQRVTRAINAKDQTEATQEKYVLEEAQRQAARDRKTKNEEWSCKLFELDPLTGEWHYKFADTRPWDPLNDMIQFEKDGVIQTKVKHRTPMVSVPKMKHKPTRQQKKVAKGYSSPEPDIQDSSGSEAQSVKPSTRRKKGIELGDIQSSIESIKQTQEEIKRNIMALRNHLVSSTPATDYFLQQKDYFIIFLLILLQVIINFMFK
Difference (log2), untreated vs GFP [1]: 0.9951 log2

Difference (log2), PP1 vs untreated [2]: 0.5838 log2
B3: MYO1B (protein, UniProt O43795 1-1136, looked up)
Unconventional myosin-Ib: MAKMEVKTSLLDNMIGVGDMVLLEPLNEETFINNLKKRFDHSEIYTYIGSVVISVNPYRSLPIYSPEKVEEYRNRNFYELSPHIFALSDEAYRSLRDQDKDQCILITGESGAGKTEASKLVMSYVAAVCGKGAEVNQVKEQLLQSNPVLEAFGNAKTVRNDNSSRFGKYMDIEFDFKGDPLGGVISNYLLEKSRVVKQPRGERNFHVFYQLLSGASEELLNKLKLERDFSRYNYLSLDSAKVNGVDDAANFRTVRNAMQIVGFMDHEAESVLAVVAAVLKLGNIEFKPESRVNGLDESKIKDKNELKEICELTGIDQSVLERAFSFRTVEAKQEKVSTTLNVAQAYYARDALAKNLYSRLFSWLVNRINESIKAQTKVRKKVMGVLDIYGFEIFEDNSFEQFIINYCNEKLQQIFIELTLKEEQEEYIREDIEWTHIDYFNNAIICDLIENNTNGILAMLDEECLRPGTVTDETFLEKLNQVCATHQHFESRMSKCSRFLNDTSLPHSCFRIQHYAGKVLYQVEGFVDKNNDLLYRDLSQAMWKASHALIKSLFPEGNPAKINLKRPPTAGSQFKASVATLMKNLQTKNPNYIRCIKPNDKKAAHIFNEALVCHQIRYLGLLENVRVRRAGYAFRQAYEPCLERYKMLCKQTWPHWKGPARSGVEVLFNELEIPVEEYSFGRSKIFIRNPRTLFKLEDLRKQRLEDLATLIQKIYRGWKCRTHFLLMKKSQIVIAAWYRRYAQQKRYQQTKSSALVIQSYIRGWKARKILRELKHQKRCKEAVTTIAAYWHGTQARRELRRLKEEARNKHAIAVIWAYWLGSKARRELKRLKEEARRKHAVAVIWAYWLGLKVRREYRKFFRANAGKKIYEFTLQRIVQKYFLEMKNKMPSLSPIDKNWPSRPYLFLDSTHKELKRIFHLWRCKKYRDQFTDQQKLIYEEKLEASELFKDKKALYPSSVGQPFQGAYLEINKNPKYKKLKDAIEEKIIIAEVVNKINRANGKSTSRIFLLTNNNLLLADQKSGQIKSEVPLVDVTKVSMSSQNDGFFAVHLKEGSEAASKGDFLFSSDHLIEMATKLYRTTLSQTKQKLNIEISDEFLVQFRQDKVCVKFIQGNQKNGSVPTCKRKNNRLLEVAVP
Difference (log2), untreated vs GFP [1]: -1.083 log2

Reference: paper PMC7367873, “Dissecting the sequence determinants for dephosphorylation by the catalytic subunits of phosphatases PP1 and PP2A” (Nature Communications, 2020)
